The domain aggregation screens of Martell et al. (2025)

Assay: soluble fraction after stress (log2 fold change); higher = more stays soluble; pooled small domains, quantitative proteomics
Details: stress: pH 4
Procedure, shortened: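 Pooled custom libraries of small protein domains were subjected to pH 4 and measured by high-throughput quantitative proteomics. The log2 fold change in soluble amount per domain is reported, higher values meaning more remained soluble. This is used as a measure of aggregation propensity.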

Sequence | soluble fraction (log2)
HMSATQDAAIAVRIRDILSELDGYEDVTVTVTSGIVTMRGTTLDSEKIARLNDLTGRVEGVVAIENSVTET | -2.31
HMSAVIGTATVTTSSGSLNLRESASLYSRVIRTIPRGATVDVLSRDTSWSRVRYAGSEGYVLNQYLTFQT | ≥ 0.43
HMSDAGMNQIGDMFRAPDLMAKLAMNPATREYVSQPDFLAMMEEVKRNPSALNNHLRDPRMMNVLSVAM | -0.48
HMSDAPLLSIRSLAVAFDGTRVVDGVSFDVARGEVVALVGESGSGKTVTGLSLLDLVPPPGRRVGGEV | -0.025
HMSDDAVVRMRVPEDALGLSLRETDFRQRFGVYVLAIETRDGKLLAPPDPQRPLGKDDVLVVIQKR | -0.279
HMSDDLLTGLDAYSRGDWTTATASFERVLTTADPNNRTEALYWLVMSETSAQNYQRALNYANTFL | -0.887
HMSDDSTIVELLASSLRRDIAFGTLLPDQKLKLNELRTRYGGSIHSMRETLRILSAEGLVEATAQRGFRVT | -0.395
HMSDEIQLQFIQISIFKDHPWADMQIKDMNIIPDLLIVMILRDGERIIPNGNTRIMPGDMVIITAMSANT | -1.7
HMSDESALIAAIEKAIAAQPETAEKVRNGHLPAAGALIGSVMKETKGQADAARVRELLLGLLGQ | 0.0231
HMSDESRAEIVSSAKRLFQQYGYKKTTVSDIAKAMGKVKSAIYYYFPDKESLLRAVIDEEVG | 0.132
HMSDFEASDPALLREGMRVQHLNFGKGTVITIEGAGANKKASVAFDGVGTKQLMLRFARLKIIYE | -0.622
HMSDFKDIILKLRNEQGFTQEKLADVLGTSKSTVGMWEMGVRFPSKELYEAIADYFNVDIDYLYGRTDIR | -1.35
HMSDGYETLVNMAKPFLNNSKQITENDITDAVNTVSVMLKKRYDMTDEDIRKAVSELLHFYA | -0.791
HMSDIDHIAGRRIRQARLNAGMTLETLASQAGISKALLSKIENSKVSSPLATFSKISKVLGVPLSDLLKE | 0.204
HMSDILALMPGTIKQILVAPGDSVKRGQTVIIMESMKMELTIAAHRDGVVKRIPVEQGGQVEKGMRLLELE | -0.263
HMSDIPEGYMSRVQLGDEWGIHLATFDKAVIAVKEKLGTVVFIDKSNNTTAGYSPEQQTIIYDWLAEN | 0.29
HMSDKNVYGKYKNVFLSDEEFSELKQFYPNDWSDRIETLSEGIELKGYKYKNYLLAIKKWAEYEGQKAD | -0.77
HMSDKPIFIDTAGIAALSAIGFSKYQATIIFNYIKKGGAIYTVKDLAKIYSIDQKTIDLTQSKIIFS | 0.22
HMSDKPRYYINGNTLFISDKSVKKVLFSDLSGRSILHTTETAINIATFRGAHILTVIYTDGSTKSEVIF | 0.235
HMSDLLYAHPTEKGFQLVNVTQKVVMVILKTAAPNVYTVKGKNAIVFKEGNSWFYSENHNKKLLNIK | -0.1
HMSDLQTGDINQDGTVDEKDLSLLHSYNLELIKTISNAADLNEDGVINGLDEAYLKRLFLQNSDP | -0.142
HMSDLTEVIVKFSGDIQPIRQDLDAQVEILLKGYAIITLSPNKIGRLYSYPQIESIEIPKNLYI | -0.833
HMSDPASLQRRLMSDPELTARILDSPFTRSLLDDPNLLRQMVNANPQLRRAMDANPQLRHAL | -0.261
HMSDPEAFIRQTVAAAEPEGIALSVLGKRVRGKFRTFKLRDLGYAQFRPYLGDLDGIKVEQRDGQSYARLD | 0.045
HMSDPSRKADFIAALSSLGGSAGNGKLREQLGWDEPTYDAVKQTLLDEGAITNGRGRGGSVALAG | 0.146

Sequence | soluble fraction (log2)
HMSDPTDRLVLEAALKALGEEERQVVLLHAASGLKHREIARDLGLPLSTVLSRYSRALKKLQRYLTEEGVH | -0.461
HMSDPVDDLLLRISQQAGVARGQLVAELNMLVQDRFGGNLRHEAAAVLMAKRYGIEFRDLLPALREHLVKN | -0.469
HMSDPVKQVAMRILDLREISDYTVDKMAEVLNVPVEEYRKYESGEVDMPISFLVKIGEVFHVDMTELLTG | -0.679
HMSDQTYVKDPETGEIFRVHKRVWETGEFWRDPVWGNILGGVERGSELERLLREEGWRPLQQSLEGFPEQ | -0.276
HMSDRESYGRYRNVSLTLSEYESLKNEYPLYADKYIERLSEYMETAGKHYNNHYATILSWLSKDIK | -0.8
HMSDSGLPLPRFVSLGDDRVNARAGPGFRFPINWVYLRKNFPVEVIDEFGHWRRIKDIDGIEGWIHLSML | -0.734
HMSDTSELESIIAQIIEDNPKSIEDIGAGNQKAYGFLTGQVMKATKGQANPQVANKIIRELVARKLE | -0.41
HMSDTVDITKLGIAGKTKEAAEALLKENGFSVESKEENSDTIEKGKVISYSPTKPKNGDRITLIVSSGKK | 0.301
HMSEDTYNTLTKGTRVYNGVDYGAKYGYNPLYYFLNYNDLRIAYGADPAKLVEHYALFGIKENRVANRQIT | -0.247
HMSEEELETSGLVKRSAKGNLYDIFRHRVMVPIIDVRGAIIAFGGRVLDDSKPKYINSPETMVY | 0.0468
HMSEEQLKAFLEKVQGDTSLQEKLKAAADANAVVEIAKEAGFSISADDLKNAQSELSEEELE | -0.257
HMSEEVDVPDLVGMQLEEAEKSLEPLGLKLKIAKEIPNSEFEKGKIVDQKTKAGEKVKTGYTIEVTVSSG | -0.0107
HMSEFAYPISLNGKTKFNLALSLALTKEEIEKEVLANADVQKFLNGQTPKKLIVVPGKIVNVV | 0.123
HMSEGEMSQWIIAQAKQQGGGFQPDAARLLGSYVGNNTLRARQEIDKLLTYVGPSRVVTPEDVVLLTA | -0.0309
HMSEHKFIVPEEFNLKRLDQTVAAQFEKISRTKISKIIKSSLLKVNDKVVTDQSIKIKQDDVITFTEIKDQ | 0.237
HMSEKRLHLVVDESDVNTRIDKYIADELDGYSRSFIQKLIKDNNVLVNGRAVKPNYNIGISDNIDIVLPKL | 0.188
HMSELIDSLTEAVRSAPDAVPLRLHLAELLLADGQRDRAFAQLGQVLAKDPQNARALEMLGVGS | -0.373
HMSELSEVIEKTFEELPEELKLIVKLREIDDLSYDEISNKIGIPIGTVRSRLHRAREILINIIKN | -1.01
HMSELSGSQLKAIREEKHIPLEQVASATRIRLSLLEALEMDEYAELGSRTQARGFLKLYADFLGVPFEA | 0.00575
HMSEMDNMEWVREQYFQNMIYEIGEWVRDKKTGIVGEVVKRGTNYVTVVQEDFSLHKIWLEDLETTEK | -0.966
HMSEMLPFDEARRQFERDYLVQLLKLTSGNVSQAARLARRNRTDFYALLGRHQLEPASFKPE | -0.641
HMSEMVIPEDFLAALETNPQAKAFYATLNRQNQYAVYHRLQTAKRPETRAKRIADFVAQLAAGKRF | -0.00136
HMSEPHPPFQVVAQFPYKSEYEDDLNFEKDQIITVTSIEDDEWYYGDFKNKGGELVEGIFPKSFVTVK | -0.867
HMSEPQYKVLFSNLDDRDGGAIVTALGAMNVPYKYNDTGTALLVPADRVYDARLQLASQGLPRG | 0.172
HMSEPTVVAINETLTSERLDRYLTTQLPHISRGGIQRLLRKGNILVDGKPAKPTQHPVAGQTVEITWPIPK | -0.02
